# Results from patent publication US11912789B2, “Peptide activating agent” (Interk Peptide Therapeutics Limited, priority 2018, dated 2024).
# Non-standard residues stand in square brackets, D forms with d. Residues, ends and D or L forms follow the SMILES beside them. No end group written: not given here. ξ: configuration not given here. ξGly(decyl) = CCCCCCCCCCC(N)C(=O)O; 2Adod = 2-amino-dodecanoic acid
# Key:
# [1] = biological target: T1, Lck (Homo sapiens, UniProt P06239); assay: In vitro Lck activation kinase study (Eurofins); format: biochemical
# T1 construct: purchased Eurofins Pharma Discovery Services UK Limited
# Experimental: (§1) The ability of polypeptides of the present invention to activate Lck was examined in vitro. Lck is member of the Src family of tyrosine kinases. In vitro Lck activation kinase studies were conducted by Eurofins Pharma Discovery Services UK Limited (Dundee Technology Park, Dundee, United Kingdom) using ATP concentrations within 15 μM of the apparent Km in the presence of peptide substrate (KVEKIGEGTYGVVYK; (SEQ ID NO: 63)) and test polypeptide in semi-log dose ranges. All results in Examples X percentage Lck activity relative to control (100%).
# (§2) The ability of polypeptides of the present invention to activate Src family kinases was examined in vitro. Lck activation studies were carried out as described above and all Lck activity values are shown as percentage relative to control. In brief, Table 4 and Table 5 illustrate the selective activation of Lck kinase amongst the Src family kinases in the presence of the peptide RSKAKNPLY at 10 μM concentration.
# The effect of modification of cationic amino acid positions and substitutions of the peptide RSKAKNPLY was examined. In brief, peptides with amino acid sequence changes compared to the peptide Pep9 (RSKAKNPLY) were assessed for the ability to stimulate Lck activity. All results are shown as percentage relative to control (100%).
# Lck activity was evaluated as described in Example 1 and all Lck activity values are shown as percentage relative to control (100%). For ease of description, the polyamide moiety is referred to by “nCy” wherein n is the number of repeating units of the polyamide moiety, Cy is the number of carbon atoms of the R group in each repeating unit, and each R group is a saturated, linear carbon chain. Thus, in the present example, “4C10” is to be taken to refer to a polyamide moiety as shown in Scheme 1 above which has 4 repeating units (n=4) in which the R group of each repeating unit is a saturated, carbon side chain that is 10 carbon atoms in length (e.g. four 2-amino dodecanoic acids).
# [2] = biological target: T2, Yes (Homo sapiens, UniProt P07947); assay: In vitro Src family kinase activation study (Eurofins); format: biochemical; conditions: Table 5
# T2 construct: purchased Eurofins Pharma Discovery Services UK Limited
# Experimental: as §1, §2
# [3] = biological target: T3, Lyn (Homo sapiens, UniProt P07948); assay: as above; format: biochemical; conditions: Table 5
# T3 construct: purchased Eurofins Pharma Discovery Services UK Limited
# Experimental: as §1, §2
# [4] = biological target: T4, Fgr (Homo sapiens, UniProt P09769); assay: as above; format: biochemical; conditions: Table 5
# T4 construct: purchased Eurofins Pharma Discovery Services UK Limited
# Experimental: as §1, §2
# [5] = biological target: T5, cSRC (Homo sapiens, UniProt P12931); assay: as above; format: biochemical; conditions: Table 5
# T5 construct: purchased Eurofins Pharma Discovery Services UK Limited
# Experimental: as §1, §2
# [6] = biological target: T6, Blk (Homo sapiens, UniProt P51451); assay: as above; format: biochemical; conditions: Table 5
# T6 construct: purchased Eurofins Pharma Discovery Services UK Limited
# Experimental: as §1, §2
# [7] = biological target: T7, Fyn (Homo sapiens, UniProt P06241); assay: as above; format: biochemical; conditions: Table 5
# T7 construct: purchased Eurofins Pharma Discovery Services UK Limited
# Experimental: as §1, §2
# [8] = biological target: T8, Hck (Homo sapiens, UniProt P08631); assay: as above; format: biochemical; conditions: Table 5
# T8 construct: purchased Eurofins Pharma Discovery Services UK Limited
# Experimental: as §1
# The ability of polypeptides of the present invention to activate Src family kinases was examined in vitro. Lck activation studies were carried out as described above and all Lck activity values are shown as percentage relative to control. […]
# [9] = biological target: T9, Lck(h) (Homo sapiens, UniProt P06239); assay: Western blot of Lck auto-phosphorylation at Y394 (anti-pY394 Lck); format: biochemical; conditions: 10 μM and 30 μM; ATP, no peptide substrate; FIG. 2
# T9 construct: purchased Eurofins Pharma Discovery Services UK Limited
# Experimental: Western blot studies were performed by Eurofins Pharma Discovery Services UK Limited (Dundee, United Kingdom). In brief, Lck(h) was incubated in the presence of test peptide employing standard KinaseProfiler™ reaction conditions (Eurofins Pharma Discovery Services UK Limited) and an ATP concentration within 15 μM of the Km. Reactions were allowed to proceed for 40 minutes at room temperature before being stopped by the addition of SDS-sample buffer. In each case the Lck enzyme was diluted to yield 20 ng per 25 μl reaction. Appropriate controls in the absence of compound and peptide were also run as well as an untreated sample of both the Lck(h) and Lck(h) activated kinases. The resulting samples were then subjected to SDS-PAGE and western blot analysis using the antibodies 4G10 (anti-phospho-tyrosine antibody) (see FIG. 3) and anti-pY394 Lck (R&D Systems MAB7500) (see FIG. 2). An additional blot using the secondary detection antibody (anti-mouse-HRP) was also performed. The membranes were stained by Ponceau S to verify sample loading and effective protein transfer. The 4G10 antibody is a general anti-phospho-tyrosine antibody and there are several tyrosine residues in Lck but only one auto-phosphorylating tyrosine residue, i.e., at position Y394. […] Samples were as follows (numbers correspond to the lanes on the gel): • 1. Molecular weight markers • 2. […]
# [10] = tested on: wild-type Jurkat cells; assay: IL-2, IL-12 secretion and IL-2Ra expression in Jurkat cells (anti-CD3/anti-CD28), ELISA; format: cell-based, human; conditions: 48 hours; for IL-2 secretion: Biotin-CD3, CD28 and avidin stimulation, supernatant ELISA, FIG. 14, FIG. 42A; for IL-12 secretion: Biotin-anti-CD3, anti-CD28 and avidin, FIG. 42B
# Experimental: Cells were seeded at 1 million per well (12 well plate, 2 mL volume) and stimulated with Biotin-CD3, CD28, and avidin (5:5:1.25 μg). The cells were then treated with RSKAKNPLYR-(2Adod)4-NH2 at three concentrations as indicated plus vehicle control. The samples were then incubated for 48 hours at 37° C. after which supernatants were analysed for IL-2 content by ELISA.
# Shown are Jurkat wild type (WT) cells and Lck deficient Jurkat cells (JCaM1.6) stimulated with anti-CD3/anti-CD28. 12 well plates were coated with anti-CD3 (5 μg/mL) solution made up in PBS (200 μL) and incubated at 37° C. overnight. The next day the anti-CD3 solution was aspirated and wells gently washed twice with media (1 mL, 10 minutes). Jurkat cells (WT and Lck Deficient) were seeded at 1 million per well in anti-CD3 coated 12 well plates, further stimulated with anti-CD28 (5 ug/mL) and at time zero treated with RSKAKNPLYR-(2Adod)4-NH2 (2.5 μM). Cells were incubated for 72 hours. For the IL-2 assay, left, supernatants were analysed for IL-2 content by ELISA. For the IL-2Ra assay, right, cells were lysed with 100 μL of lysis solution containing protease and phosphatase inhibitors as well as PP2 (10 μM). The collected cell lysates were subjected to the BCA protein assay. Cell lysates (40 μg protein) were then analysed for IL-2Ra by ELISA.
# In two separate experiments, 5 million unstimulated JCam1.6 (Lck deficient) and 5 million 6.1 (WT) Jurkat cells, respectively, were seeded in T25 flasks. The cells were treated with RSKAKNPLYR-(2Adod)4-NH2 at 5 μM, 10 μM and 20 μM concentrations for 1 hour after which the cell suspensions were centrifuged and washed twice with fresh media. For each experiment, a mixture of Biotin-anti-CD3 and Avidin (5:1.25 ug) in 500 μL of media was added to the wells of a 12 well plate. After 10 minutes the unstimulated, washed cells were seeded at 1 million cells per well and the cell suspension made up to 2 mL volume with media. The samples were then further stimulated with anti-CD28 (5 ug/mL), after which the samples were incubated for 48 hours at 37° C. The supernatants (100 μL, n=3), were then analyzed for IL-2 content.
# 12 well plates were coated with anti-CD3 (5 μg/mL) solution made up in PBS (200 μL) and incubated at 37° C. overnight. […] Cells were incubated for 24 hours and supernatants were then analysed for IL-2 by ELISA.
# 12 well plates were coated with anti-CD3 (5 μg/mL) solution made up in PBS (200 μL) and incubated at 37° C. overnight. […] Cell lysates (40 μg protein) were then analysed for IL-2Ra by ELISA.
# 12 well plates were coated with anti-CD3 (5 μg/mL) solution made up in PBS (200 μL) and incubated at 37° C. overnight. […] Cells were incubated for 72 hours and the supernatants were then analysed for IL-2 by ELISA. […]
# T1 sequence (P06239 whole entry): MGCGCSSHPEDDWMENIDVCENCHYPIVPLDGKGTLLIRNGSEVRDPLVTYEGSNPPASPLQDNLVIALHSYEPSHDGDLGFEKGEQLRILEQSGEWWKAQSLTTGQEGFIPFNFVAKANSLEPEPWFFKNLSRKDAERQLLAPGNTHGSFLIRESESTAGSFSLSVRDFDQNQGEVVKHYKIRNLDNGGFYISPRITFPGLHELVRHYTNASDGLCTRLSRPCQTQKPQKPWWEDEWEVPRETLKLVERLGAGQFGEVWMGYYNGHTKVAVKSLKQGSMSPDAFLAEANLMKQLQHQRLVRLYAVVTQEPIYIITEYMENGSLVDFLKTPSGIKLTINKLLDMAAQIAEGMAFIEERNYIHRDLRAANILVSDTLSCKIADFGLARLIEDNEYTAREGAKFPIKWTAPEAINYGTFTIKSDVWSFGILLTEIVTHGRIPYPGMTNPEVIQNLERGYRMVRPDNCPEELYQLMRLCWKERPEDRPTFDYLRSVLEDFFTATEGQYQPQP
# T7 sequence (P06241 whole entry, species assumed): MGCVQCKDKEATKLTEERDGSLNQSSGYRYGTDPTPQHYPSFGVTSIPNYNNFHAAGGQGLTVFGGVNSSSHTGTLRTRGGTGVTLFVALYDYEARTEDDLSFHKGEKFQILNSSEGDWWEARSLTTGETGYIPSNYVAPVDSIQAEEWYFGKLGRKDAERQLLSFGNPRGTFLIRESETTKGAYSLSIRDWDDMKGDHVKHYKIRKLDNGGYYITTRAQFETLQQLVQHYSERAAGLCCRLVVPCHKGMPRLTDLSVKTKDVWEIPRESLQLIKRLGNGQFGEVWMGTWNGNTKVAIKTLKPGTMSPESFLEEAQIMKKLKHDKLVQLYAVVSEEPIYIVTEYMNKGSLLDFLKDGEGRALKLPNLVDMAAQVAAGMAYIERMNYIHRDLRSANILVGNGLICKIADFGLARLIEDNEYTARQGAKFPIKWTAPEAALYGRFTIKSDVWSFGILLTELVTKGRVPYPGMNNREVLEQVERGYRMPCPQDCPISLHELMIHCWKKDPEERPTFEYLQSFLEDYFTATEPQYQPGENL
# T6 sequence (P51451 whole entry, species assumed): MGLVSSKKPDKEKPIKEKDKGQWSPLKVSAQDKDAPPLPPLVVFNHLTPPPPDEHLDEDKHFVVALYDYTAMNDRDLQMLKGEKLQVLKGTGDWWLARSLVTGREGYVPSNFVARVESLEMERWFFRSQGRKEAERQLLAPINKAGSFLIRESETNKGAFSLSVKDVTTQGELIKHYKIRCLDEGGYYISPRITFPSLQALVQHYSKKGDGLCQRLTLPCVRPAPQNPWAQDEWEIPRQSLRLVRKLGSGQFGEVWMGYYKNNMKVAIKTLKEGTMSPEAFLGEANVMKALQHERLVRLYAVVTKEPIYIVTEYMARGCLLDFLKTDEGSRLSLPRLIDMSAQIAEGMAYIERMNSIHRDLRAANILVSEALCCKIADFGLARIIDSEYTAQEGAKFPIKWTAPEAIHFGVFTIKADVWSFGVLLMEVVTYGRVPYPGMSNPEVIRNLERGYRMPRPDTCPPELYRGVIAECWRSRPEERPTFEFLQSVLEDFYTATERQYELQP
# T2 sequence (P07947 whole entry, species assumed): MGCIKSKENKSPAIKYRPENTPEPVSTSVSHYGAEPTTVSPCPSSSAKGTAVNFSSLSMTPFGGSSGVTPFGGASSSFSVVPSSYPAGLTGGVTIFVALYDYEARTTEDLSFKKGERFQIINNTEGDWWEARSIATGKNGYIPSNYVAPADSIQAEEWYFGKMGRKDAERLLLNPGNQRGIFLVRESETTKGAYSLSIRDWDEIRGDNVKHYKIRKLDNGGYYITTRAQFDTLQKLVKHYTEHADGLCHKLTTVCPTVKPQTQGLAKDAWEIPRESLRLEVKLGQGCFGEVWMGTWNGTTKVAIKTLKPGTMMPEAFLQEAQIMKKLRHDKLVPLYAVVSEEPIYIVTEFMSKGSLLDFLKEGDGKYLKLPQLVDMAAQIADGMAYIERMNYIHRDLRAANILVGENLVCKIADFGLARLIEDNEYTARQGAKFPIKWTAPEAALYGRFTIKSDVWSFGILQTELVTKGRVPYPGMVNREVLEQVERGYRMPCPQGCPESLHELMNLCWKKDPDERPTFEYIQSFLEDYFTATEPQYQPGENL
# T9 sequence (P06239 whole entry): as the sequence (P06239 whole entry) above
# T3 sequence (P07948 whole entry, species assumed): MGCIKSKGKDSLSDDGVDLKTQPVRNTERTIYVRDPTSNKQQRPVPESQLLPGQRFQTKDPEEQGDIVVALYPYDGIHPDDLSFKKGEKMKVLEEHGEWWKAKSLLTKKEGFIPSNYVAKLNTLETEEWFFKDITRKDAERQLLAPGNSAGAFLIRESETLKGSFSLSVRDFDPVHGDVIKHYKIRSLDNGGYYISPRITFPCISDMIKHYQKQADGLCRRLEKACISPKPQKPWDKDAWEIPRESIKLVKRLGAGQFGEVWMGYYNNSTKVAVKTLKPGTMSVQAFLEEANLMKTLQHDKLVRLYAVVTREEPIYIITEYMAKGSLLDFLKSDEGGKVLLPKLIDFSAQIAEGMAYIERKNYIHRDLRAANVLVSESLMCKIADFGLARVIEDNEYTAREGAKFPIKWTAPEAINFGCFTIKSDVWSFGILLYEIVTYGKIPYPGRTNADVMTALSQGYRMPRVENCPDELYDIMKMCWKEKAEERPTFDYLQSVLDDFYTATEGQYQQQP
# T8 sequence (P08631 whole entry, species assumed): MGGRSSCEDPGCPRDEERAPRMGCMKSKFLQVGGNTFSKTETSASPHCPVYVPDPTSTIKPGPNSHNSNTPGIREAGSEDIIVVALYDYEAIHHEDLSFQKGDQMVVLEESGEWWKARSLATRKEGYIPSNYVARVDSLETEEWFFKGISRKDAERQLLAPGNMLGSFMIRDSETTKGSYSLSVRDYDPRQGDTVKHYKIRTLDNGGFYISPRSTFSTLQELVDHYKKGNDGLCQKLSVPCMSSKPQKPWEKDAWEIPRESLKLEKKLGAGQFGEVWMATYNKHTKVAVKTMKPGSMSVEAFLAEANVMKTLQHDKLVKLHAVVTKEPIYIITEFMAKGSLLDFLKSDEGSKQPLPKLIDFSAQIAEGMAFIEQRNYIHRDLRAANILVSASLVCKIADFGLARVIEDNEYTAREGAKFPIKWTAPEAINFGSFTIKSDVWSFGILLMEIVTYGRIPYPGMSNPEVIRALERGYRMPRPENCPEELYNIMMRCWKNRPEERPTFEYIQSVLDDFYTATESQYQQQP
compound,measurement,setting,value
CCCCCCCCCCC(N)C(=O)NC(CCCCCCCCCC)C(=O)NC(CCCCCCCCCC)C(=O)O (stereo not drawn) [H-(2Adod)3-OH],Lck activation above control (1 μM),[1]; Table 7,0%
same,Lck activation above control (10 μM),"[1]; 10 μM, Table 7",0%
"RSKAKNPLYR-(2Adod)4-OH (RSKAKNPLYR-{2Adod-2Adod-2Adod-2Adod-OH}) [… coupled to four 2-amino dodecanoic acid residues, non-amidated]",Lck activation above control (1 μM),[1]; Table 9,252%
same,Lck activation above control (10 μM),"[1]; 10 μM, Table 9",395%
RVKVKVVVV,"Lck Activity (1 μM), kinase Yes",[2]; 1 μM,0%
same,"Lck Activity (10 μM), kinase Yes",[2]; 10 μM,0%
same,"Lck Activity (1 μM), kinase Lyn",[3]; 1 μM,0%
same,"Lck Activity (10 μM), kinase Lyn",[3]; 10 μM,0%
same,"Lck Activity (1 μM), kinase Fgr",[4]; 1 μM,0%
same,"Lck Activity (10 μM), kinase Fgr",[4]; 10 μM,0%
same,"Lck Activity (1 μM), kinase c-Src",[5]; 1 μM,0%
same,"Lck Activity (10 μM), kinase c-Src",[5]; 10 μM,0%
same,"Lck Activity (1 μM), kinase Blk",[6]; 1 μM,0%
same,"Lck Activity (10 μM), kinase Blk",[6]; 10 μM,0%
same,"Lck Activity (1 μM), kinase Fyn",[7]; 1 μM,0%
same,"Lck Activity (10 μM), kinase Fyn",[7]; 10 μM,0%
same,"Lck Activity (1 μM), kinase Hck",[8]; 1 μM,0%
same,"Lck Activity (10 μM), kinase Hck",[8]; 10 μM,0%
RSKAKNPLY,auto-phosphorylation of Lck at Y394,[9],induces a dose-dependent auto-phosphorylation of Lck
same,IL-2 secretion,[10],increase IL-2 secretion
same,IL-12 secretion,[10],increase IL-12 secretion
CCCCCCCCCCC(N)C(=O)NC(CCCCCCCCCC)C(=O)NC(CCCCCCCCCC)C(=O)NC(CCCCCCCCCC)C(=O)O (stereo not drawn) [H-(2Adod)4-OH] (H-[ξGly(decyl)][ξGly(decyl)][ξGly(decyl)][ξGly(decyl)]-OH),Lck activation above control (1 μM),[1]; Table 7,0%
same,Lck activation above control (10 μM),"[1]; 10 μM, Table 7",0%
CCCCCCCCCCC(N)C(=O)NC(CCCCCCCCCC)C(=O)O (stereo not drawn) [H-(2Adod)2-OH],Lck activation above control (1 μM),[1]; Table 7,0%
same,Lck activation above control (10 μM),"[1]; 10 μM, Table 7",18%
CCCCCCCCCCC(N)C(=O)O (stereo not drawn) [H-(2Adod)1-OH],Lck activation above control (1 μM),[1]; Table 7,0%
same,Lck activation above control (10 μM),"[1]; 10 μM, Table 7",0%
RSKAKNPLYR,auto-phosphorylation of Lck at Y394,[9],does not increase
same,IL-2 secretion,[10],increase IL-2 secretion
same,IL-12 secretion,[10],not
RSKAKNPLYR-1C10-OH (RSKAKNPLYR-{2Adod-OH}) [… coupled at the C-terminal end toone 2-amino dodecanoic acid residue],Lck Activity 10 μM,"[1]; 10 μM, Table 8",221%
same,Lck Activity 30 μM,"[1]; 30 μM, Table 8",277%
"DSEAENPLYD-(2Adod)4-NH2 (DSEAENPLYD-{2Adod-2Adod-2Adod-2Adod-NH2}) [DSEAENPLYD-(2-Adod)4-NH2, anionic residues at 1, 3, 5, 10 in place of Arg and Lys]",Lck activation (FIG. 30),[1]; cationic versus anionic residues,does not increase the activity of Lck
